# Experimental data published in article PMC2756588.
# T1: Bud14, P27637
# T1 sequence (P27637 247-328, looked up): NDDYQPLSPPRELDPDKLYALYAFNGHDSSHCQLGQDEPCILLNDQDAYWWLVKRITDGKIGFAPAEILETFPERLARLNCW
# T2: Abp1, P15891
# T2 sequence (P15891 535-592, looked up): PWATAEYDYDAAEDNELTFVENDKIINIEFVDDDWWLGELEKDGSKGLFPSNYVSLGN
# T3: Boi2, P39969
# T3 sequence (P39969 32-116, looked up): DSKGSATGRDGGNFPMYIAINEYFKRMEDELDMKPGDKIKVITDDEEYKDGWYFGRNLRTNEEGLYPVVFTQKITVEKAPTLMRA
# T4: Cdc25, P04821
# T4 sequence (P04821 50-136, looked up): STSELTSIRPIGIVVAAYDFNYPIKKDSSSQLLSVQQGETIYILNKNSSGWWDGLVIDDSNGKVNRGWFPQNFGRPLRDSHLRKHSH
# T5: Bzz1-1, P38822
# T5 sequence (P38822 478-572, looked up): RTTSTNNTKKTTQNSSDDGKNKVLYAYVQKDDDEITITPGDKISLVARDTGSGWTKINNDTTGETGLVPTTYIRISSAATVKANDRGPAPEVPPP
# T6: Bzz1-2, P38822
# T6 sequence (P38822 568-633, looked up): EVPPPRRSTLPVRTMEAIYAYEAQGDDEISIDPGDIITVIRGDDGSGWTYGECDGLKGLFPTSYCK
# T7: Fus1, P11710
# T7 sequence (P11710 432-512, looked up): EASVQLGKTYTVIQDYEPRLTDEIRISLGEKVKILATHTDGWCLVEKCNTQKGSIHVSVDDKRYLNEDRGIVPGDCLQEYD
# T8: Cyk3, Q07533
# T8 sequence (Q07533 1-83, looked up): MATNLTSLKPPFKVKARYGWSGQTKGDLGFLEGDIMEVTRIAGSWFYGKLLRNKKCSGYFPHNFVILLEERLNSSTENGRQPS
# T9: Sla1-2, P32790
# T9 sequence (P32790 60-140, looked up): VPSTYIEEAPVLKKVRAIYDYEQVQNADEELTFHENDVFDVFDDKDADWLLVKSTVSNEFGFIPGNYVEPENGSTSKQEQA
# T10: Myo5, Q04439
# T10 sequence (Q04439 1072-1160, looked up): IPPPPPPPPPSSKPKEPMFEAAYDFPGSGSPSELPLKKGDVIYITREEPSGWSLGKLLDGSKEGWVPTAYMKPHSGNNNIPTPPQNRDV
# T11: Lsb3, P43603
# T11 sequence (P43603 385-451, looked up): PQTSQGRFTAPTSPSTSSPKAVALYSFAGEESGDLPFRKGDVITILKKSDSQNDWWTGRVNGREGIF
# T12: Pin3, Q06449
# T12 sequence (Q06449 53-122, looked up): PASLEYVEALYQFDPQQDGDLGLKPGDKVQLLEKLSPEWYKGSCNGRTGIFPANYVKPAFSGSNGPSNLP
# T13: Bbc1, P47068
# T13 sequence (P47068 1-78, looked up): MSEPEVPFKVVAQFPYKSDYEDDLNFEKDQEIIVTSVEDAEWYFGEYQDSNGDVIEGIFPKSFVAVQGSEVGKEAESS
# T14: Hse1, P38753
# T14 sequence (P38753 208-285, looked up): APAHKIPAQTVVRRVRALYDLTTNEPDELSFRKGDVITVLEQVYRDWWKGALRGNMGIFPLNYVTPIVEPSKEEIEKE
# T15: Lsb4, P32793
# T15 sequence (P32793 402-468, looked up): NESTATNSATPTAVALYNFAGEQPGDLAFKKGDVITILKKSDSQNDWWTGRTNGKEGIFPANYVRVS
# T16: Boi1, P38041
# T16 sequence (P38041 1-86, looked up): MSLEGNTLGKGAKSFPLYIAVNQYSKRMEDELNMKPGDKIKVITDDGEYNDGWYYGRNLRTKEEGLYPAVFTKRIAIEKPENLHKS
# T17: Nbp2, Q12163
# T17 sequence (Q12163 103-180, looked up): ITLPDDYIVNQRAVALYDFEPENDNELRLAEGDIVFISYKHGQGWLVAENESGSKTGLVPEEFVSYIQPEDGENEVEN
# T18: Sla1-3, P32790
# T18 sequence (P32790 344-424, looked up): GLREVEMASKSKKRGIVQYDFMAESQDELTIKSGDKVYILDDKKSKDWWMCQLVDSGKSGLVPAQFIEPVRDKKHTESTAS
# T19: Lsb1, P53281
# T19 sequence (P53281 45-122, looked up): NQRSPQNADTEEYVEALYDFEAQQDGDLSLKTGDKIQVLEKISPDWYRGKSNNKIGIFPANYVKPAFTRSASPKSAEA
# T20: Hof1, Q05080
# T20 sequence (Q05080 590-669, looked up): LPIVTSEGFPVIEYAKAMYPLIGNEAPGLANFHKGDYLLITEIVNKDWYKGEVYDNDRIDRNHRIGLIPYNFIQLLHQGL
# T21: Pex13, P80667
# T21 sequence (P80667 295-386, looked up): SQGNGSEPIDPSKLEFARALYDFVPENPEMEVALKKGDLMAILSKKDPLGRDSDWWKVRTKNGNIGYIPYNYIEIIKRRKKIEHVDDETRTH
# B1: unnamed (peptide)
# chain: EREKALPPIPFTTTL
# B2: unnamed (peptide)
# chain: NENKKLPPAPTVFGL
# B3: unnamed (peptide)
# chain: DLFKPLPEPPTELGR
# Target: T1, Bud14, P27637
# Assay: SPOT array
# Details: median of control spots 956
row,SPOT intensity,Binder
1,0,B1
2,2,B2
3,0,B3

# Target: T2, Abp1, P15891
# Assay: SPOT array
# Details: median of control spots 935
row,SPOT intensity,Binder
1,0,B1
2,9,B2
3,0,B3

# Target: T3, Boi2, P39969
# Assay: SPOT array
# Details: median of control spots 1161
row,SPOT intensity,Binder
1,0,B1
2,0,B2
3,0,B3

# Target: Bem1-1, P29366
# Sequence (P29366 55-141): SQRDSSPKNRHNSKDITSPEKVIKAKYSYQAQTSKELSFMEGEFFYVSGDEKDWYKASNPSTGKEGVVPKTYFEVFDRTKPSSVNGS
# Assay: SPOT array
# Details: median of control spots 4282
row,SPOT intensity,Binder
1,1,B1
2,2,B2
3,0,B3

# Target: GST
# Assay: SPOT array
# Details: median of control spots 978
row,SPOT intensity,Binder
1,0,B1
2,0,B2
3,0,B3

# Target: T4, Cdc25, P04821
# Assay: SPOT array
# Details: median of control spots 969
row,SPOT intensity,Binder
1,0,B1
2,4,B2
3,0,B3

# Target: T5, Bzz1-1, P38822
# Assay: SPOT array
# Details: median of control spots 4446
row,SPOT intensity,Binder
1,0,B1
2,3,B2
3,0,B3

# Target: Rvs167, P39743
# Sequence (P39743 419-482): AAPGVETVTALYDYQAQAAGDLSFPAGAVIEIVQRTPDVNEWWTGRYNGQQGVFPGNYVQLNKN
# Assay: SPOT array
# Details: median of control spots 2707
row,SPOT intensity,Binder
1,2,B1
2,2,B2
3,0,B3

# Target: T6, Bzz1-2, P38822
# Assay: SPOT array
# Details: median of control spots 4538
row,SPOT intensity,Binder
1,0,B1
2,0,B2
3,0,B3

# Target: T7, Fus1, P11710
# Assay: SPOT array
# Details: median of control spots 1200
row,SPOT intensity,Binder
1,0,B1
2,0,B2
3,0,B3

# Target: T8, Cyk3, Q07533
# Assay: SPOT array
# Details: median of control spots 1451
row,SPOT intensity,Binder
1,0,B1
2,1,B2
3,0,B3

# Target: T9, Sla1-2, P32790
# Assay: SPOT array
# Details: median of control spots 712
row,SPOT intensity,Binder
1,1,B1
2,0,B2
3,0,B3

# Target: T10, Myo5, Q04439
# Assay: SPOT array
# Details: median of control spots 471
row,SPOT intensity,Binder
1,0,B1
2,0,B2
3,0,B3

# Target: T11, Lsb3, P43603
# Assay: SPOT array
# Details: median of control spots 406
row,SPOT intensity,Binder
1,4,B1
2,1,B2
3,6,B3

# Target: T12, Pin3, Q06449
# Assay: SPOT array
# Details: median of control spots 2171
row,SPOT intensity,Binder
1,2,B1
2,0,B2
3,0,B3

# Target: Sho1, P40073
# Sequence (P40073 287-367): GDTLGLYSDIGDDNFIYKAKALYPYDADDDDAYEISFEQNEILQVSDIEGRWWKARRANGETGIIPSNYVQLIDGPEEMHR
# Assay: SPOT array
# Details: median of control spots 1148
row,SPOT intensity,Binder
1,1480,B1
2,927,B2
3,1320,B3

# Target: T13, Bbc1, P47068
# Assay: SPOT array
# Details: median of control spots 796
row,SPOT intensity,Binder
1,0,B1
2,0,B2
3,0,B3

# Target: T14, Hse1, P38753
# Assay: SPOT array
# Details: median of control spots 1727
row,SPOT intensity,Binder
1,1,B1
2,0,B2
3,1,B3

# Target: Bem1-2, P29366
# Sequence (P29366 139-227): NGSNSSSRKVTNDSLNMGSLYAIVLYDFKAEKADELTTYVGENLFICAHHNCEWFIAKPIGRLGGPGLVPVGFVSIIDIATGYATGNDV
# Assay: SPOT array
# Details: median of control spots 4347
row,SPOT intensity,Binder
1,0,B1
2,0,B2
3,0,B3

# Target: T15, Lsb4, P32793
# Assay: SPOT array
# Details: median of control spots 397
row,SPOT intensity,Binder
1,2,B1
2,0,B2
3,0,B3

# Target: T16, Boi1, P38041
# Assay: SPOT array
# Details: median of control spots 1162
row,SPOT intensity,Binder
1,0,B1
2,2,B2
3,0,B3

# Target: Myo3, P36006
# Assay: SPOT array
# Details: median of control spots 468
row,SPOT intensity,Binder
1,0,B1
2,0,B2
3,0,B3

# Target: T17, Nbp2, Q12163
# Assay: SPOT array
# Details: median of control spots 357
row,SPOT intensity,Binder
1,0,B1
2,0,B2
3,0,B3

# Target: T18, Sla1-3, P32790
# Assay: SPOT array
# Details: median of control spots 5475
row,SPOT intensity,Binder
1,0,B1
2,1,B2
3,0,B3

# Target: T19, Lsb1, P53281
# Assay: SPOT array
# Details: median of control spots 388
row,SPOT intensity,Binder
1,16,B1
2,0,B2
3,0,B3

# Target: T20, Hof1, Q05080
# Assay: SPOT array
# Details: median of control spots 4086
row,SPOT intensity,Binder
1,354,B1
2,25,B2
3,2,B3

# Target: T21, Pex13, P80667
# Assay: SPOT array
# Details: median of control spots 1341
row,SPOT intensity,Binder
1,12,B1
2,9,B2
3,47,B3
